# Measured values published in a protein production outcome set (Wang et al. 2014).
# Experiment: label from the status in PepcDB records
# 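Further: failed if final PepcDB status was selected cloned or expressed and not failed if soluble or beyond.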
row,Sequence,protein production
1,MKRLPLLAALPLLCASALSAQPLMSVGYFNGGGDVTAGPGGDIDKLDVRQITHLNYSFGLIYNDEKDETNAALKDPAHLHEIWLSPKVQADLQKLPALRKQNPDLKVLLSVGGWGARGFSGAAATAESRAVFIRSAQKIIQQYGLDGIDLDWEFPVNGAWGLVASQPADRDNFTALLKSLREAVGEQKLVTIAVGANAESPKSWVDVKAVAPVLNYINLMTYDMAYGTQYFNSNLYDSSHWPTVAAADKYSADFVVNNYLAAGLKPSQMNLGIGFYGRVPKRAVEPGIDWTKADAQNNPVTQPYFGPQQIALFASLGYDLSKDTYVKYNDIVGKLLNDPQKRFTEHWDDEAKVPWLSVQSAEGKPLFALSYENPRSVAIKADYIKAKGLAGAMFWEYGADDQNQLARQLAESLGIKH,not failed
2,MKRLYKAMFIVFILLVLMFASQQGLFEHVTNSNWVAHFIKAEGNYALMALLAVGALFTAVGGPRQVIAFVFGFALGGIYGGLFSTLAALLGCVLVFYTARLTIRSSLQRRFGHRLQKFEALIIHRTWLKVLMIRLLPVGSNLLTNLFAGATHISPGGFLFGSMLGYLPQMLIFSFAGAGIGLADHNQLWISIGLFIVSSLIGAYLYRSSLRKQVDELEH,failed
3,MKRMSSLEYHFGVKVRFYPSNNQKKMIKQNYDAQRFVYNQYVGAGRLIYHVKKANRIKQLSSGLPFVMQGMSEYENQQALRMIDTQDLISKPKNIRDKYDFLRVEDIDSLAIANAIQNYHKAWRNYHKIGYGIPTFHKKRSSWSYQTNCQYIKQDAAYLDNGTVRFIDAKHVKLPKLGIVRIAGLRKLIKKRLFNRIPIRIGTASIKKTADDQFYLSLQLGSDIAFVKDYAKTQKQIGIDLNLDNFLTDSNGAMVANPRFYRRAKKKLAHAQRILSRRERRAKKEGRSLCESKNYQKQRLAVAKLHDRIRRQRQDFLQVLSTALIKNHDLVVAEELRSKNLLKNHALAQSISDAGWRSFLTMLEYKADLHGKKFVTIDPKFTTQRCHNCGNIMGQNGYKKLTLKDRKWTCPVCGSYHIRDWNASVNILEKSKGIWKNPKIKKRSK,failed
4,MKRNTRLLFVVPAFFAIFAMACACQGGTAGKSFTNSTGSPGEMMLVMDDQYLGSPVGEAIYEAMTEVAPALNQNEPIMAVSRVSEKDFTGFLRYIRNVLQIDINPDIFTKTSLKYGYDQWANGQLVVLINSPATDSLTAYVESNKSAIQNLFIRHELFLFGQLWQKDCSADADQRVQRMFGYHINVPADILSHKEGKDFLWMSNNQMRRRKDFLVYTFPYRGASDLGLDRMVEVRDSVLKANIEGSDAGSYPVTERMLLKHRYVYPGDQKRGEVHGIWRMEGGQMMSGPFVAQAFVDGDRVVVVEGFVYHPNEKKRDLMRQMEAALYSMRPKAEKEFDPSIIRKARWTTLK,failed
5,MKRPGAIPTVQIDNERVKVTEWRFPPGGETGWHRHSMDYVVVPMTTGPLLLETPEGSVTSQLTRGVSYTRPEGVEHNVINPSDTEFVFVEIEIKAA,not failed
6,MKRRSVLLSGVALSGTALANDSIFFSPLKYLGAEQQRSIDASRSLLDNLIPPSLPQYDNLAGKLARRAVLTSKKLVYVWTENFGNVKGVPMARSVPLGELPNVDWLLKTAGVIVELIVNFVASLPASAAAQFERIATGLSGDLEAARQVHEALLEEAKNDPAAAGSLLLRFTELQTRVIAILTRVGLLVDDILKSASNLVTQRGQGDGLNRFRAVFGTLRLPEVADSFRDDEAFAYWRVAGPNPLLIRRVDALPANFPLGEEQFRRVMGADDSLLEAAASRRLYLLDYAELGKLAPSGAVDKLLTGTGFAYAPIALFALGKDRARLLPVAIQCGQDPATHPMFVRPAESESDLYWGWQMAKTVVQVAEENYHEMFVHLAQTHLVSEAFCLATQRTLAPSHPLHVLLAPHFEGTLFINEGAARILLPSAGFIDVMFAAPIQDTQATAGGNRLGFDFYRGMLPESLKARNVDDPLALPDYPYRDDGLLVWNAIRQWAADYVAVYYASDGDVTADVELAAWVGEVIGSGKVAGFRPITGRSQLVEVLTMVIFTASAQHAAVNFPQPSMMTYAPAICAMSAAPAPDSPSGKSEADWLKMMPPTLVALEKVNIYHLLGSVYHGRLGDYRQTGFPYAPVFSDRRVTASGGPLERFQARLKEVEATIRTRNQARRRPYEYLLPSRIPASTNI,failed
7,MKRSASLKEDVFLKSKVHFWTLEVLMVVAIIFICTKISFLFQPIGIFISTLFFPILIALFLYFIFNPVLVFLEEKKVPRNLAILLLYLFIITLTAVGVGVVVPTISQQLMDLVKNMPGYIKEGKLYIQDLSHHRLFEWLSTQNYVSIETIEKNAIEYLKDIPNTITSSATALFGIITNVALVIFTVPFILFYMFKDGHAFPGKAVSLLPESYREEGLRIIKETNETLSAYIQGQALVCIFVGAFTFIGYLIIDLPYAFVLGIIAAFTNIIPNLGPFIGAAPAVIVGLFVSPMQALYVIIIVTIVQQFESNIISPRIMSSKLNIHPLTIIILILGVGNFAGIIGMILAVPVYAVTKTVVSNLVRLFKTKRSNRK,failed
8,MKRSEKKSMSSALKNGIMERTQPEKVVQMQGTADLSTSKLGTKKYWDELYALELENFRRNPQDTGDCWFSDSDAEQKMIDFLVDNIGAYRISENASVVDLGTGNGHMLFELHQTEFQGKLVGIDYSEESVKLASNIAEATGVDNFISFQQADIFSGDWKPGKYDIVLDKGTLDAISLSGMKINGKLDVVDVYAGVVERILKKDGIFLITSCNFTQDELVKIIETDNLKMWKTIKYPVFQFGGVQGATICSVAFVKQN,failed
9,MKRSILNTLLNVLAIIFIVFLMIKVSVPMGSILLLSFIIFKLTINKHLIYMFKGAKKLRANNLEEALSLYRKAALCNSSNVKAIKTYVFLELKIGSYTEALETLKSIVSKRKFLPEDANQLDLLQAILYWKLNDIKTSLQILDDLKANNFNSLDFYEVYGYVLIQDEDFEKAISISNEGLKVDELSQIIRANLGEIFYKIGDIKKACFYFDELIDECVNFSEPYYFMGIISKEKEDFYKAKEFLNKALKYDESILSNLSKNDIENALISINH,failed
10,MKRSNTVRLVVSKEQHEVLKRLGIATAKCWNEVNWLRMKQYKEGKRVDFGITEKAVYEKYKSVLRVNAQQVARKNAEDWRSFFSLTREKKEGKLPSWFKPRPPGYWKDGRLIVIIRNDRYTVDERNRVVYLKDFNLSLKFKGRLKWHGKQGRLEIIYDEARKIWYAHIPVEVETEKVKEGIKASIDLGIVNLATVYVEDGSWYLFKGGSALSHYENYSKRITIVQKTLHRHRQRRSRRLKLLHEKRSRFLKHALNSMVRRIMEILREKNVGEVVVGYPKEIAKHHGNKLTVNFWNYSYIIKRLEDIGEELGIKVITVDEAYTSKTCSLCGEAHEDGRVKRGLFVCPRTRKAINADLNGAINILHIPESRGSEGNFHRGIGVIGLKTQPVTLSDLSKIKNHYNYSISDYTILHYIQPLEHHHHHH,not failed
11,MKRSSPVILVSEDEYGKFDESTNSILVKGKMHHLGISRVIEPGDELIVSGKSFIVSDFSPMYFGRVIRRNTQIISEIDASYIIMRCGLRPGMDILEVGVGSGNMSSYILYALNGKGTLTVVERDEDNLKKAMDNLSEFYDIGNVRTSRSDIADFISDQMYDAVIADIPDPWNHVQKIASMMKPGSVATFYLPNFDQSEKTVLSLSASGMHHLETVELMKRRILVREGATRPASDDLTHTAFITFAIKKSGMVYRI,not failed
12,MKRTFKMALIASLAVGGSYVLYGSQNKEELSDLALSNVEALTLGTKDCMYQRNSRCYELVVGPPGEPVIIETSEEANWVNRYTIPE,failed
13,MKRTHLASFSNRDKTQEEEGEDGNGDNRVIMNHYKNYEAGLIPWPPKNYTCSFCRREFRSAQALGGHMNVHRRDRAKLRQIPSWLFEPHHHTPIANPNPNFSSSSSSSTTTAHLEPSLTNQRSKTTPFPSARFDLLDSTTSYGGLMMDREKNKSNVCSREIKKSAIDACHSVRCEISRGDLMNKKDDQVMGLELGMSLRNPNQVLDLELRLGYL,not failed
14,MKRTLYSGVGLLLVGLLFLAFNLLSSLLLRDQQFDLTQQKLYTFSAGTQEVLDSLDEPLNLYLFFSKSRASDLPALRNYARRVEEVLDLYARRSHGNVRLFVIDPLPFSDDEDRAARFGLQAPPIGPNGEAIYFGLAATNPTDGLQVIPFFSPEEEPLLEYDLSRLVQALAQRERTVVGLMSSLPMTGQAPTDGQPGSRPWAMMDKLYQQFDIRTLGLASTEIPAEVSVLMLVHPRQLSEQTQYAIDQFVLRGGKLLAFVDPLSLADADGGKSSDLAPLLRSWGVQLRPDTLLADASFAMIKPNAERRPERNPTWLHLPGDTFPHDNVLTTGLESLNLASVGLLEPLGGASTRFIPLLHSSAHSMPLSLERFRQSSTEQLNATLVPTGERYVLAAKVEGPATSAFPADRGKQGEGLSDSANIHVLLVADTDLLSNPLWLQEQPGHNEPQVWADNDLFVGNALDYLSGSDALIDLRSRGHTKRPFTRVEALRREAGLRAQEQLNALQQSLNDTDRNLRTLQQSMDAGDQEVTPEMEATLRRFIDDKLRIRQQLRQLQFQLNADVERLGEQVKLANTVLLPALLTLFLLLHWSWRSMRRRRG,failed
15,MKRVLVLGATGRTGNFVIKELSKYKSIQLIAGLRSQKDKERLPKINAAIETVVIDIADVCSLRKALTDSDIVVQAIRLRGDISENALIQLDQRIHQAFNPSRKTHLVTVGGAGALKLEANQRFWENEYFPRQTLPRGIAHARLRDYLEKSFFNHTWTYLIPPPVYVAEGARTGSYNRYSSAQKEDFFLSKSISYADFALAIGNAVMEEWQGVYLIAEKELEHHHHHH,failed
16,MKSCSRSSSVRLCVRCTGLSLWCCIGHATSVIKSVRNMQSVIGNGYKRSPTGKESRMTPLTSDFLSSSVVFLSAAVIAVPLAQRAGLGSVLGYLLAGIAIGPWGLGLIRDVQAIMHFAEFGVVLLLFLIGLELNPKKLWNLRGPILGLGGAQVVVTTAVLSSVAYLLGVSWQSALVIGMALALSSTAIALRVIEEHGLTRTEAGQSGFAVLLFQDIAVIPMLALLPILAGNSSGDWLNALWMTGGIAALLLGGHFLLNPLFRYIALSGVRELFTVAALLLVVGIALLMQKVGLSMALGTFLAGVILAESEFRHELEIAIDPFKGLLLGLFFISVGMAVDVGLLLVKPLQIMLAVLGLVIVKGLVLYLLARLSGTVAKARSKMAAILSQGGEFAFVIFTAASAEGLLTASQVSFLLVVVSLSMVTTPLLLSAQKYWFARQLNIEENPLTPDVENKEPRVIIVGFGRFGQIVGRLLYANKIKVTILESDASQVRLLRKYGYKVFYGDATNLELLRAAGVEQAEALVVCTDDPEQVITIVELCQQHFPNLKLLARARSRVEAYQLMSLGVQNYTRETFLSALDLGRKALVQLGMHPYQAKRAEEHFHRLDKTMLKELLPQHNEDKQLELRAKEARTELEEIFSREMDSDQLSRRYWEKE,failed
17,MKSEKETIYDYAAELKLLSFKEELECTLSLAAEENWNHLQFLTELLGKESARRRECRRRSRIRSAGFPQMKYLHELVMEDMPKEAQVILPELETLDFIRQGRNLVLYGNPGTGKTHIATALGIKACQQDFTVLFTSVPVLLTQIREAKSAKTLRTLQLRFEKYDLVICDEFGYVSCDKEGGELLFNHLSLRAGKKATIITTNLAFNRWNEIIKDKVLVAAMVDRLTHKAYLVNMTGLSYRLKETQKMRQDKLEHHHHHH,failed
18,MKSILSLFSGIGGLCHHGIAAAGLSHKFQVKQFVEISPYSQSRLRHEQPQTPIHSDITTYHCHRGQFDIVAGGLPCQGTSNAGNRQGLDDPRSALWAEQFRIIESDRPAIALIENPTGLLYRGLEQIICDLDSIGYMGEWNCISAQQVGLPHQRKRIFIIAYSNGLFNQVVPAPWSNQIGNHITQVRLSLETRSYQPGISKVASRIPIGVAKNIPGNYDARRAYGLSCSPRQAAVAWKRIDYLCSLLSYQEAS,failed
